Experimental data taken from the supplement of paper PMC9112550, “Optimization of the antimicrobial peptide Bac7 by deep mutational scanning” (BMC Biology, 2022).

Test system: Escherichia coli TOP10
Experiment: shrunken log2 fold change of peptide-encoding DNA abundance (4.5 h post-induction vs induction); higher = less antimicrobial activity (less host growth inhibition)
Details: time post-induction: 4.5 h; library: site-saturation at positions 5, 18, 19, 20
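Further: peptides expressed intracellularly from a pBAD plasmid library in pooled LB shake-flask culture, induced with 0.3% L-arabinose, DNA abundance read by NGS, three biological replicates, DESeq2 with apeglm shrinkage.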

| Sequence | shrunken log2 fold change |
| --- | --- |
| RRIRHRPPRLPRPRPRPIMPPRP | -0.74 |
| RRIRHRPPRLPRPRPRPINVPRP | -1.14 |
| RRIRHRPPRLPRPRPRPIPEPRP | -0.16 |
| RRIRHRPPRLPRPRPRPIPGPRP | -0.158 |
| RRIRHRPPRLPRPRPRPIPKPRP | -0.0389 |
| RRIRHRPPRLPRPRPRPIPSPRP | -0.274 |
| RRIRHRPPRLPRPRPRPIRVPRP | -0.361 |
| RRIRHRPPRLPRPRPRPIRWPRP | 0.171 |
| RRIRHRPPRLPRPRPRPISAPRP | -0.0622 |
| RRIRHRPPRLPRPRPRPISNPRP | -0.779 |
| RRIRHRPPRLPRPRPRPITRPRP | -0.0356 |
| RRIRHRPPRLPRPRPRPITTPRP | -0.0193 |
| RRIRHRPPRLPRPRPRPIVDPRP | 0.0237 |
| RRIRHRPPRLPRPRPRPIVKPRP | -0.19 |
| RRIRHRPPRLPRPRPRPIVNPRP | 0.114 |
| RRIRHRPPRLPRPRPRPIWHPRP | -0.327 |
| RRIRHRPPRLPRPRPRPIWLPRP | -0.00879 |
| RRIRHRPPRLPRPRPRPIYNPRP | -0.898 |
| RRIRHRPPRLPRPRPRPIYRPRP | -0.111 |
| RRIRHRPPRLPRPRPRPKACPRP | -0.01 |
| RRIRHRPPRLPRPRPRPKAFPRP | 0.0173 |
| RRIRHRPPRLPRPRPRPKCSPRP | -0.0294 |
| RRIRHRPPRLPRPRPRPKDLPRP | -0.0584 |
| RRIRHRPPRLPRPRPRPKDPPRP | 0.0476 |
| RRIRHRPPRLPRPRPRPKFAPRP | 0.00298 |

| Sequence | shrunken log2 fold change |
| --- | --- |
| RRIRHRPPRLPRPRPRPKHGPRP | 0.109 |
| RRIRHRPPRLPRPRPRPKHHPRP | -0.493 |
| RRIRHRPPRLPRPRPRPKHNPRP | 0.196 |
| RRIRHRPPRLPRPRPRPKICPRP | 0.0596 |
| RRIRHRPPRLPRPRPRPKISPRP | -0.395 |
| RRIRHRPPRLPRPRPRPKKHPRP | -0.324 |
| RRIRHRPPRLPRPRPRPKLTPRP | -0.0624 |
| RRIRHRPPRLPRPRPRPKMQPRP | -0.121 |
| RRIRHRPPRLPRPRPRPKPYPRP | -0.277 |
| RRIRHRPPRLPRPRPRPKRRPRP | 0.116 |
| RRIRHRPPRLPRPRPRPKSAPRP | -0.0502 |
| RRIRHRPPRLPRPRPRPKSIPRP | -0.136 |
| RRIRHRPPRLPRPRPRPKSPPRP | -0.0893 |
| RRIRHRPPRLPRPRPRPKSWPRP | 0.26 |
| RRIRHRPPRLPRPRPRPKWCPRP | -0.142 |
| RRIRHRPPRLPRPRPRPKWSPRP | 0.0617 |
| RRIRHRPPRLPRPRPRPKWYPRP | -0.462 |
| RRIRHRPPRLPRPRPRPKYSPRP | -0.489 |
| RRIRHRPPRLPRPRPRPLAKPRP | 0.107 |
| RRIRHRPPRLPRPRPRPLDKPRP | -0.0374 |
| RRIRHRPPRLPRPRPRPLDNPRP | -0.515 |
| RRIRHRPPRLPRPRPRPLENPRP | 0.00854 |
| RRIRHRPPRLPRPRPRPLFHPRP | -0.462 |
| RRIRHRPPRLPRPRPRPLFWPRP | 0.274 |
| RRIRHRPPRLPRPRPRPLGKPRP | -0.239 |

| Sequence | shrunken log2 fold change |
| --- | --- |
| RRIRHRPPRLPRPRPRPLGLPRP | 0.393 |
| RRIRHRPPRLPRPRPRPLICPRP | -0.493 |
| RRIRHRPPRLPRPRPRPLLAPRP | 0.299 |
| RRIRHRPPRLPRPRPRPLLVPRP | -0.167 |
| RRIRHRPPRLPRPRPRPLMAPRP | -0.206 |
| RRIRHRPPRLPRPRPRPLNYPRP | -0.289 |
| RRIRHRPPRLPRPRPRPLPTPRP | 0.245 |
| RRIRHRPPRLPRPRPRPLPVPRP | 0.125 |
| RRIRHRPPRLPRPRPRPLQIPRP | 0.0781 |
| RRIRHRPPRLPRPRPRPLQKPRP | 0.104 |
| RRIRHRPPRLPRPRPRPLRNPRP | -0.0741 |
| RRIRHRPPRLPRPRPRPLSAPRP | 0.242 |
| RRIRHRPPRLPRPRPRPLTHPRP | -1.14 |
| RRIRHRPPRLPRPRPRPLYMPRP | -0.00599 |
| RRIRHRPPRLPRPRPRPMAYPRP | -0.0524 |
| RRIRHRPPRLPRPRPRPMCEPRP | -0.293 |
| RRIRHRPPRLPRPRPRPMCGPRP | -0.181 |
| RRIRHRPPRLPRPRPRPMDEPRP | -0.204 |
| RRIRHRPPRLPRPRPRPMDMPRP | 0.0881 |
| RRIRHRPPRLPRPRPRPMESPRP | 0.00489 |
| RRIRHRPPRLPRPRPRPMFWPRP | 0.0114 |
| RRIRHRPPRLPRPRPRPMGLPRP | 0.00622 |
| RRIRHRPPRLPRPRPRPMHFPRP | -0.0161 |
| RRIRHRPPRLPRPRPRPMISPRP | -0.442 |
| RRIRHRPPRLPRPRPRPMKKPRP | -0.0202 |
